Measured values as given in patent US7022818 (Janssen / Centocor, dated 2006).
Blank lines part the entries; values can stand above or below the binder they belong to.

B2: rat GFRα-4 variant A-IgGFc fusion protein (Fc fusion)
chain: ASSTEGNRCVEAAEACTADEQCQQLRSEYVAQCLGRAGWRGPGSCVRSRCRRALRRFFARGPPALTHALLFCGCEGPACAERRRQTFAPACAFSGPQLAPPSCLKPLDRCERSRRCRPRLFAFQASCAPAPGSRDGCPEEGGPRCLRAYAGLVGTVVTPNYLDNVSARVAPWCGCEASGNRREECEAFRKLFTRNPCLDGAIQAFDSSQPSVLQDQWNPYQNAG
notes: also called rat GFRα-4-IgGFc; rat GFRα4-IgGFc; not shown: The 243-residue COOH-terminal human IgG1-Fc fusion domain from the vector Signal pIg plus (R&D Systems)
B3: NH2-terminally 6His-tagged recombinant rat persephin (ligand)
chain: HHHHHHALPGLCRLWSLTLPVAELGLGYASEEKIIFRYCAGSCPQEVRTQHSLVLARLRGQGRAHGRPCCQPTSYADVTFLDDHHHWQQLPQLSAAACGCGG
notes: Immobilised on a CM5 chip by amine coupling; Produced as described in Creedon et al., 1997; also called PSP; rat PSP

Assays:
[1] = target: T1, chicken GFRα-4-IgGFc fusion protein (chicken; human, UniProt P01857-1 99-330 = IgG part, limits assumed); experiment: SPR (BIACORE 3000), ligand immobilised, GFRα-IgGFc in solution
T1 construct: domain: human IgG1-Fc fusion domain; also called chicken GFR-4-IgGFc
T1 sequence (P01857 other isoform, or with tags, fused parts or gaps limits assumed): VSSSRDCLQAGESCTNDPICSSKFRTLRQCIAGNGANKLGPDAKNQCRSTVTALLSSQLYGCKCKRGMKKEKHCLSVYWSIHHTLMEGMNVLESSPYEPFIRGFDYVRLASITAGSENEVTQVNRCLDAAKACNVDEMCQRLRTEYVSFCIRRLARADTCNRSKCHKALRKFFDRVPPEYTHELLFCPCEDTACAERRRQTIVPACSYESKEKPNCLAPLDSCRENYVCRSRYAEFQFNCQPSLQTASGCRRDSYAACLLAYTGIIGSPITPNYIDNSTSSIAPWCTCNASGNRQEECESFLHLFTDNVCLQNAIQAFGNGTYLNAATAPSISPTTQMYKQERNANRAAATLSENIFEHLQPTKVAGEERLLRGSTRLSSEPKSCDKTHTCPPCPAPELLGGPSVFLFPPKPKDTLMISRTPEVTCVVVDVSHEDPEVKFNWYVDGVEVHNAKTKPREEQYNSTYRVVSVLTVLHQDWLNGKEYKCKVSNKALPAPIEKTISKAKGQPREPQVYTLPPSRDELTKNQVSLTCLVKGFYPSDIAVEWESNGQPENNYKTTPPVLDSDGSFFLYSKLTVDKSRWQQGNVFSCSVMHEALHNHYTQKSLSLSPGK
Experimental: (§1) Bound protein was eluted with 0.1 M Na-citrate, pH 3.0 and collected into 1 M Tris buffer, pH 8.4 (dilution ratio 1:6). Protein concentration was estimated by absorbance at 280 nm using an extinction coefficient of 1.5. Surface plasmon resonance (SPR) U.S. Ser. No. 10/019,337, filed Dec. 19, 2001 experiments were performed at 25° C. using a BIACORE 3000 instrument (Biacore AB, Uppsala, Sweden). Sensor chip CM5, the amine coupling kit and buffers used were also obtained from Biacore AB. Recombinant PSP, NTN, EVN/ART and GDNF were used as immobilised ligands. Recombinant human GDNF was obtained from R&D Systems Europe Ltd. (Abingdon, UK). NH2-terminally 6His-tagged (SEQ ID NO: 48) recombinant human NTN, rat PSP and human EVN/ART were produced in *E. coli* as described previously (Creedon et al., 1997). The carboxylated matrix of a CM5 sensor chip was first activated with a 1:1 mixture of 400 mM N-ethyl-N'-(3-dimethylaminopropyl)-carbodiimide and 100 mM N-hydroxy-succinimide for 10 min. Recombinant neurotrophic factors were applied onto the activated surface in 10 mM sodium acetate buffer, pH 4.5 at a flow rate of 5 μl/min. Unreacted carboxyl groups were blocked with 1 M ethanolamine-HCl. For binding experiments, soluble GFRα-IgGFc fusion proteins were superfused using the kinject program at 30 μl/min. Concentrations of GFRα-IgGFc used in kinetic experiments were between 1 and 100 nM in Hepes buffered saline (150 mM NaCl, 3.5 mM EDTA sodium salt, 0.005% polysorbate 20, 10 mM Hepes, pH 7.4). The association of the GFRα receptors to the immobilised ligands was monitored for 3 min and the dissociation for 1 min, followed by regeneration with 10 mM glycine buffer. Dissociation was initiated by superfusion with Hepes buffered saline. To improve the quality of sensor data, double referencing was used (Myszka, 1999). Data were analyzed using a global analysis with the BIACORE evaluation software (version 3.0.1). Global analysis calculates the association rate (k_a) and dissociation rate (k_d) simultaneously and the apparent equilibrium dissociation constant (K_D) is then calculated as k_d/k_a. A simple 1:1 Langmuir model was used to fit the data. Specific binding to PSP could be detected with both rat and chicken GFRα-4-IgGFc fusion proteins.

[2] = target: B2; experiment: as above
Experimental: as §1

[3] = target: B3; experiment: SPR (BIACORE 3000), persephin immobilised
Experimental: Bound protein was eluted with 0.1 M Na-citrate, pH 3.0 and collected into 1 M Tris buffer, pH 8.4 (dilution ratio 1:6). Protein concentration was estimated by absorbance at 280 nm using an extinction coefficient of 1.5. Surface plasmon resonance (SPR) U.S. Ser. No. 10/019,337, filed Dec. 19, 2001 experiments were performed at 25° C. using a BIACORE 3000 instrument (Biacore AB, Uppsala, Sweden). Sensor chip CM5, the amine coupling kit and buffers used were also obtained from Biacore AB. Recombinant PSP, NTN, EVN/ART and GDNF were used as immobilised ligands. Recombinant human GDNF was obtained from R&D Systems Europe Ltd. (Abingdon, UK). NH2-terminally 6His-tagged (SEQ ID NO: 48) recombinant human NTN, rat PSP and human EVN/ART were produced in *E. coli* as described previously (Creedon et al., 1997). […] The association of the GFRα receptors to the immobilised ligands was monitored for 3 min and the dissociation for 1 min, followed by regeneration with 10 mM glycine buffer. […] Data were analyzed using a global analysis with the BIACORE evaluation software (version 3.0.1). Global analysis calculates the association rate (k_a) and dissociation rate (k_d) simultaneously and the apparent equilibrium dissociation constant (K_D) is then calculated as k_d/k_a. […] Specific binding to PSP could be detected with both rat and chicken GFRα-4-IgGFc fusion proteins.

[4] = target: T1, chicken GFRα-4-IgGFc fusion protein; experiment: SPR (BIACORE 3000), persephin immobilised, GFRα-4-IgGFc in solution, 1:1 Langmuir global fit, n=3
Experimental: as §1

[5] = target: B2; experiment: as above
Experimental: as §1

[6] = target: T2, human GFRα-2-IgGFc fusion protein (human, UniProt O00451 20-431); experiment: SPR (BIACORE 3000), NTN immobilised
T2 construct: range 20-431; not shown: 243 amino acid residue COOH-terminal human IgG1-Fc fusion domain from vector Signal pIg plus (R&D Systems); exact limits
T2 sequence (looked up): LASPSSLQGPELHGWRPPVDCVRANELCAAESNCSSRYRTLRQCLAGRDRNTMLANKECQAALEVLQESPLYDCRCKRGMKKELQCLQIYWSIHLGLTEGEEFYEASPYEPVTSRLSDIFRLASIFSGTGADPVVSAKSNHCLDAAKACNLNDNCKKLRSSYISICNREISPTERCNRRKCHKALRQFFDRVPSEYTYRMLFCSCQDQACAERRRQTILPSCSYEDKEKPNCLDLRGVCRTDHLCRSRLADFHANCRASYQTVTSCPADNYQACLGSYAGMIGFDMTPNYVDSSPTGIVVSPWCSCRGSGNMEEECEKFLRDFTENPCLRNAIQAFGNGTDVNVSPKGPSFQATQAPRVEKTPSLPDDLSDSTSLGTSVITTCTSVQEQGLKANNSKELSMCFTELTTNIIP
Experimental: GFRα-IgGFc fusion proteins were purified from the medium of permanently or transiently transfected CHO cells by protein A chromatography. Bound protein was eluted with 0.1 M Na-citrate, pH 3.0 and collected into 1 M Tris buffer, pH 8.4 (dilution ratio 1:6). Protein concentration was estimated by absorbance at 280 nm using an extinction coefficient of 1.5. Surface plasmon resonance (SPR) U.S. Ser. No. 10/019,337, filed Dec. 19, 2001 experiments were performed at 25° C. using a BIACORE 3000 instrument (Biacore AB, Uppsala, Sweden). Sensor chip CM5, the amine coupling kit and buffers used were also obtained from Biacore AB. Recombinant PSP, NTN, EVN/ART and GDNF were used as immobilised ligands. Recombinant human GDNF was obtained from R&D Systems Europe Ltd. (Abingdon, UK). NH2-terminally 6His-tagged (SEQ ID NO: 48) recombinant human NTN, rat PSP and human EVN/ART were produced in *E. coli* as described previously (Creedon et al., 1997). […] The association of the GFRα receptors to the immobilised ligands was monitored for 3 min and the dissociation for 1 min, followed by regeneration with 10 mM glycine buffer. […] Data were analyzed using a global analysis with the BIACORE evaluation software (version 3.0.1). Global analysis calculates the association rate (k_a) and dissociation rate (k_d) simultaneously and the apparent equilibrium dissociation constant (K_D) is then calculated as k_d/k_a. […]

Binder: B2
fold lower binding level than chicken GFRα-4-IgGFc [3]: ~20 fold

Binder: B3
Kd [4]: 5.4 nM
koff [4]: 0.00088 s⁻¹
kon [4]: ~230000 M⁻¹ s⁻¹
Kd [5]: 5.9 nM
koff [5]: 0.0012 s⁻¹
kon [5]: ~270000 M⁻¹ s⁻¹

B4: NH2-terminally 6His-tagged recombinant human neurturin (ligand)
chain: HHHHHHARLGARPCGLRELEVRVSELGLGYASDETVLFRYCAGACEAAARVYDLGLRRLRQRRRLRRERVRAQPCCRPTAYEDEVSFLDAHSRYHTVHELSARECACV
notes: Immobilised on a CM5 chip by amine coupling; also called NTN
binding result [6]: binds
binding result [1]: no binding
binding result [2]: no binding

Next, values leading:

binding result [1]: no binding
binding result [2]: no binding
B1: recombinant human GDNF (ligand, UniProt P39905 78-211, looked up)
chain: SPDKQMAVLPRRERNRQAAAANPENSRGKGRRGQRGKNRGCVLTAIHLNVTDLGLGYETKEELIFRYCSGSCDAAETTYDKILKNLSRNRRLVSDKVGQACCRPIAFDDDLSFLDDNLVYHILRKHSAKRCGCI
notes: Immobilised on a CM5 chip by amine coupling; also called glial cell-line derived neurotrophic factor

binding result [1]: no binding
binding result [2]: no binding
B5: NH2-terminally 6His-tagged recombinant human enovin/artemin (ligand)
chain: HHHHHHAGGPGSRARAAGARGCRLRSQLVPVRALGLGHRSDELVRFRFCSGSCRRARSPHDLSLASLLGAGALRPPPGSRPVSQPCCRPTRYEAVSFMDVNSTWRTVDRLSATACGCLG
notes: Immobilised on a CM5 chip by amine coupling; also called EVN/ART; EVN/ARTN
